From patent US20150192588A1 (SAMSUNG ELECTRONICS, published 2015)

Target: T1, human c-Met/Fc fusion protein (R&D Systems) (human, UniProt P08581 25-932)
T1 construct: Bought reagent, coated on the ELISA plate at 2 ug/mL; also called human c-Met/Fc protein; not shown: Fc part of the bought fusion protein
Assay: ELISA, human c-Met/Fc coated at 2 ug/mL, hybridoma culture supernatant, anti-mouse IgG-HRP
Experimental: Human c-Met/Fc fusion protein was seeded in an amount of 50 μL (2 μg/mL)/well to microtiter plates and allowed to adhere to the surface of each well. The antibody that remained unbound was removed by washing.
The hybridoma cell culture obtained in Reference Example 1.1.2 was added in an amount of 50 μL to each well of the plates and incubated for 1 hour. The cells remaining unreacted were washed out with a sufficient amount of Tris-buffered saline and Tween 20 (TBST). Goat anti-mouse IgG-horseradish peroxidase (HRP) was added to the plates and incubated for 1 hour at room temperature. The plates were washed with a sufficient amount of TBST, followed by reacting the peroxidase with a substrate (OPD). Absorbance at 450 nm was measured on an ELISA reader.

T1 sequence (P08581 25-932 limits assumed): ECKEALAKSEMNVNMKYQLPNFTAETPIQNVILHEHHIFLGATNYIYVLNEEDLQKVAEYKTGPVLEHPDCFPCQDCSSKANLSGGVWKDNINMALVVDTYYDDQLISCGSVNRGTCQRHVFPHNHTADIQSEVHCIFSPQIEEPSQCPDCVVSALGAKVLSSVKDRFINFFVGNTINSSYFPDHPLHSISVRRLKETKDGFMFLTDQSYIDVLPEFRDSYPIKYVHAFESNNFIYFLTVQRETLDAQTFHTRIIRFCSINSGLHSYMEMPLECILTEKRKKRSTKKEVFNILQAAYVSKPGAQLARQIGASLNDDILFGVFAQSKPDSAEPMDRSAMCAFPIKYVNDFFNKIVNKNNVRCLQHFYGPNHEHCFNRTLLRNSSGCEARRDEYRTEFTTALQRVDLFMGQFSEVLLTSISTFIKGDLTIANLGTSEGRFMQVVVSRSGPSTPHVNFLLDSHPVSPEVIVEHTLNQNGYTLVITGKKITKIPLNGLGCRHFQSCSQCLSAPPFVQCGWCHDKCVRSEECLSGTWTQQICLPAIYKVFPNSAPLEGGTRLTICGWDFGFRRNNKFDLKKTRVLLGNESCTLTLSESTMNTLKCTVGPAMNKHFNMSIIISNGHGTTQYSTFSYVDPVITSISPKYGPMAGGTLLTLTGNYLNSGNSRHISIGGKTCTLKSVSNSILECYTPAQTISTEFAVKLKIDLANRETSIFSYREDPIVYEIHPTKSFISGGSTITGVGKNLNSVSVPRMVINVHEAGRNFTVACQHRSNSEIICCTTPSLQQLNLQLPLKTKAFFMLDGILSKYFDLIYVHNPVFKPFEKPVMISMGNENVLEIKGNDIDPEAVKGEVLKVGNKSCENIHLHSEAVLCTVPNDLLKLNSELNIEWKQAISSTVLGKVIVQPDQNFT

binding result: binds
B1: AbF46, mouse monoclonal antibody to c-Met (hybridoma KCLRF-BP-00220) (antibody, V domains shown)
VH: EVKLVESGGGLVQPGGSLRLSCATSGFTFTDYYMSWVRQPPGKALEWLGFIRNKANGYTTEYSASVKGRFTISRDNSQSILYLQMDTLRAEDSATYYCARDNWFAYWGQGTLVTVSA
VL: DILMTQSPSSLTVSAGEKVTMSCKSSQSLLASGNQNNYLAWHQQKPGRSPKMLIIWASTRVSGVPDRFIGSGSGTDFTLTINSVQAEDLAVYYCQQSYSAPLTFGAGTKLELK
notes: In the screening ELISA it stood as hybridoma culture supernatant; The single clone chosen by this screen produces AbF46; also called mouse antibody AbF46
